The text below walks through data of article PMC9194504, “Chondroitin Sulfates Control Invasiveness of the Basal-Like Breast Cancer Cell Line MDA-MB-231 Through ROR1” (Frontiers in Oncology, 2022).

For this test, the target named is T1, Recombinant human ROR1-Fc chimera (human, UniProt Q01973 30-406).
T1 construct: receptor tyrosine kinase-like orphan receptor 1 (ROR1), human; recombinant ROR1-Fc chimera, R&D Systems Cat. No. 9490-RO; also called receptor tyrosine kinase-like orphan receptor 1; recombinant ROR1; source: bought: R&D Systems (Cat. No. 9490-RO)
T1 sequence (Q01973 30-406, change not shown): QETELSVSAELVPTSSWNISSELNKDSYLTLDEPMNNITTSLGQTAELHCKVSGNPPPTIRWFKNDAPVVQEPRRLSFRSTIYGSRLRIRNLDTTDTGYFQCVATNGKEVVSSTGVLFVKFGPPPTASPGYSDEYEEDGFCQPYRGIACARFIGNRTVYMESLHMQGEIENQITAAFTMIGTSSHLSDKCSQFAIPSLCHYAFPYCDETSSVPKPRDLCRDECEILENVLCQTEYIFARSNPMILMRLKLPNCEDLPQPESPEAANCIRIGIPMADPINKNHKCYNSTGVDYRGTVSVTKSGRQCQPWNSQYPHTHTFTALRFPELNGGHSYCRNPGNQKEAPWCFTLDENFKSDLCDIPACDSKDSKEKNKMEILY
Put plainly: SPR; Biacore X100; ROR1-Fc amine-coupled on a CM5 chip (~3,200 RU); protein analyte premixed with CS-E (CS-E:protein molar ratio 7:1), 30 μl/min, 120 s, dissociation 130 s, 25°C; 50 mM Tris-HCl pH 7.5. As to conditions: both partners purified.

B1: recombinant human DKK1 (ligand, UniProt O94907 32-266, looked up)
chain: TLNSVLNSNAIKNLPPPLGGAAGHPGSAVSAAPGILYPGGNKYQTIDNYQPYPCAEDEECGTDEYCASPTRGGDAGVQICLACRKRRKRCMRHAMCCPGNYCKNGICVSSDQNHFRGEIEETITESFGNDHSTLDGYSRRTTLSSKMYHTKGQEGSVCLRSSDCASGLCCARHFWSKICKPVLKEGQVCTKHRRKGSHGLEIFQRCYCGEGLSCRIQKDHHQASNSSRLHTCQRH
notes: Dickkopf-1 (DKK1), human, recombinant, R&D Systems Cat. No. 5439-DK/CF; also called Dickkopf-1; source: bought: R&D Systems (Cat. No. 5439-DK/CF)
Take B1: the binding result is reported as “binds”.
